Assay results from article PMC10720262 (2023).

biological target: PfCSP full length (Plasmodium falciparum (isolate NF54), UniProt P19597); test: ELISA AUC
Sequence (P19597 20-375): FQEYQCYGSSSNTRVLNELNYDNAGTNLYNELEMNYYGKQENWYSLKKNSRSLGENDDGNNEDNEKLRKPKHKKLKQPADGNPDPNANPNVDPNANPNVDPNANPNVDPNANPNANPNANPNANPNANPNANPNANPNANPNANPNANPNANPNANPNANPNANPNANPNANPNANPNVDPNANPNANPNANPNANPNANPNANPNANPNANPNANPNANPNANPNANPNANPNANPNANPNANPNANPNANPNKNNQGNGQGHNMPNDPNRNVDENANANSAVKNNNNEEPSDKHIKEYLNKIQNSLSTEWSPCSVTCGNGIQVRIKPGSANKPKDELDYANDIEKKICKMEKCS

Binder | binding score
CL-460369 (antibody, V domains shown, peptides N-terminally acetylated and C-terminally amidated) VH: QVQLVESGGGVVQPGRSLRLSCAASGFTFSNYGMHWVRQAPGKGLEWVGIIWYDGSNKYYIDSVKGRFTISRDNSRNTLYLQINSLRAEDTAVYYCARDGGWNDDYYYVMDVWGQGTTVTVSS VL: DIVMTQSPDSLAVSLGEGATINCKSSQSVLYSSNNKNYLAWYQQKPGQPPKVLIYWASIRESGVPDRFSGSGSGTDFTLTISSLQAEDVAVYYCQQYYSMCSFGQGTKLEIK | 2.3
CL-441816 (antibody, V domains shown, peptides N-terminally acetylated and C-terminally amidated) VH: QEQLVESGGGVVQPGRSLRLSCATSGFTFSTYGLHWVRQSPGKGLEWVTVIWYDGSNKFYADSVKGRFTISRDNSKNTLYLQMNSLRAEDTAVYYCARALYSSRWYGAFDIWGQGTMVTVSS VL: QSVLTQPPSVSGAPGQRVTISCTGSSSNIGAGYDVHWYQLLPGTAPKLLIYGNSNRPSGVPDRFSGSKSGTSASLAITGLQAEDEADYYCQSYIRSLSGSVFGGGTKLTVL | 2.4
CL-514716 (antibody, V domains shown, peptides N-terminally acetylated and C-terminally amidated) VH: QIQLVESGGGVVQPGRSLRLSCAASGFTFSTYGMHWVRQAPGKGLEWVAVIWYDGSNKYYADSVQGRFTISRDNSKNTLYLQMNSLRAEDTAIYYCTTVGPIPFDYWGQGTLVTVSS VL: DIVMTQTPLSSPVILGQPASISCRSSQSLVHSSGNTYLSWLQQRPGQPPRLLIYKTFKRLSGVPDRFSGSGAGTDFTLKISRVEAEDVGVYYCLQSTQFPLTFGGGTKVEIK | 1.75
CL-437092 (antibody, V domains shown, peptides N-terminally acetylated and C-terminally amidated) VH: QVQLVESGGGVVQPGGSLRLSCAASGFTLSSFGIHWVRQAPGKGLEWVALIWHDGSMKYYADSVKGRFTISRDNSKNTVDIQMNSLRVEDTAVYYCARPGIGSPGDHYTMDVWGHGTTVTVSS VL: not shown | 2.5
CL-510458 (antibody, V domains shown, peptides N-terminally acetylated and C-terminally amidated) VH: QVQLVESGGGVVQPGRSLRLSCAASGFTFNNYGMHWVRQAPGKGLEWVAVIWYDGSNKFHADSVKGRFTISRDNSKNTLYLQMNSLRAEDTALYYCARVYYYDSGSYLDYWGQGTLVTVSS VL: DIQMTQSPSSVSASVGDRVTITCRASQGISRWLAWYQQKPGKAPKLLIYAASSLQSGVPSRFSGSGSGTDFTLTISSLQPEDFATYCCQQANNFPWTFGQGTKVEIK | 2
CL-510487 (antibody, V domains shown, peptides N-terminally acetylated and C-terminally amidated) VH: QVQLEESGGGVVQPGRSLRLSCTATGFTFSNYGMHWVRQAPGRGLEWVGVIWYDGSNKFYVDSVKGRFTISRDNSKNTLYLQMNSLRAEDTAVYYCARDGGYYGSGSYWWFDSWGQGTLVTVSS VL: DIQMTQSPSTLSASVGDRVTITCRASQSISSWLAWYQQKPGKAPKLLIYKASSLERGVPSRFSGSGSGTEFTLTISSLQPDDFATYYCQQYNRYCSFGQGTKLEIK | 1.83
CL-464181 (antibody, V domains shown, peptides N-terminally acetylated and C-terminally amidated) VH: QVQLVESGGGAVQAGTSLRLSCAASGFSFSYNGMHWVRQGPGKGLEWVAIIWYDGGNKFYADSVKGRFTISRDNSKKMLYLQMNRLRAEDTAVYYCARAWNFADNKYSMDVWGQGTTVTVSA VL: DIQMTQSPSTLSASVGDRVTITCRASQSISCWLAWYQQKPGKAPQLLIYKASSLESGVPSRFSGSGSGTEFTLTISSLQPDDFATYYCQQYYIYWTFGQGTKVDIK | 2.4
CL-513617 (antibody, V domains shown, peptides N-terminally acetylated and C-terminally amidated) VH: QVQLVESGGGVVQPGRSLRLSCAASGFIFSNYGMYWVRQTPDKGLEWVALIWYDGGNKFYSDSVKGRFTVSRDNSKNTLYLQMNSLRDEDTALYYCARAGYFYGSGSSLDKWGQGTLVTVSS VL: DIQMTQSPSTLSASVGDRVSITCRASQSISIWLAWYQQKPGKAPKLLIYKASSLESGVPSRFSGSGSGTEFSLTISSLQPDDFATYYCQQYNRYWTFGQGTKVEIK | 2.59
CL-444653 (antibody, V domains shown, peptides N-terminally acetylated and C-terminally amidated) VH: QVQLVESGGGVVQPGRSLRLSCTASGFTFSTYGMHWVRQAPGKGLEWVAIIWYDGGNKFYADSVKGRFTISRDNSKDTLYLQMNSLRAEDTAVYYCAKAWYKVDDKYSMDVWGQGTTVTVSS VL: DIQMTQSPSTLSASVGDRVTITCRASQSISSWLAWYQQKPGKAPKLLIYKASSLESGVPSRFSGSGSGTEFTLTISGLQPDDFATYYCQQYINYWTFGQGTKVEIK | 2.3
